The record followed here is article PMC10149453, “Three segment ligation of a 104 kDa multi-domain protein by SrtA and OaAEP1” (Journal of Biomolecular Nmr, 2022).

The target in the assay is T1, Ncc ligated to ZHk (P. furiosus, UniProt P58301 1-386; P58301 390-497).
T1 construct: Rad50 of P. furiosus, aa 1-386 (from Ncc); OaAEP1 ligation scar; replaces the natural 'LGD' (N from Ncc, GL from the N-terminus of ZHk); Rad50 of P. furiosus, Zn Hook domain, aa 390-497 (from ZHk); The ZHk part is uniformly deuterated and ILVM side-chain methyl labelled (isotopes only); also called Ncc-ZHk; Ncc-ZnHk; source: OaAEP1 ligation of Ncc (E. coli) to ZHk (E. coli, deuterated minimal …)
T1 chain: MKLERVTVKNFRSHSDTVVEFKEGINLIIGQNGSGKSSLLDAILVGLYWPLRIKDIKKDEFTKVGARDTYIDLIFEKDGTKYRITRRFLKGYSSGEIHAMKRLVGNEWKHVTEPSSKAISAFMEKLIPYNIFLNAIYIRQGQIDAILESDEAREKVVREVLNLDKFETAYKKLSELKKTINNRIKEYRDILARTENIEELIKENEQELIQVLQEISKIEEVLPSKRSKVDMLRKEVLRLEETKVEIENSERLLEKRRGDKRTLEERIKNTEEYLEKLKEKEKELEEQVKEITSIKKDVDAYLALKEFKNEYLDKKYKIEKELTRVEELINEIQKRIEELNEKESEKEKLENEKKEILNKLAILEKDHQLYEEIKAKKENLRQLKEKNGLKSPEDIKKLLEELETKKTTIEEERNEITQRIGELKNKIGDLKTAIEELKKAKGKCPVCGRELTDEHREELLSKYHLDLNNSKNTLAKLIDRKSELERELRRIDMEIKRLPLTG
Briefly: co-purification on a Ni affinity column; purified ligation mixture after TEV cleavage, separated on a HisTrap HP column; a 6His tag remains only on the C-terminus of ZHk in Ncc-ZHk; unreacted products in the flowthrough, target in the elution. Conditions: both partners purified.

B1: Pf Rad50 C-Terminal coiled-coil-NBD (aa 503 – 882) after TEV cleavage (domain or fragment, P. furiosus)
chain: GTVAEQIRSIEEELNVVNLEKIEKNATEYEKLLEELRTLEGRIRGLAEDLKKLAPLEKKLAALIHKKQELEKELKELNTKLESFGFKSVEDLDSKLRELEEIYKRYLTLLNSKKELEITQREIAKAKETLEMSFEELAEVEADIERIEKKLSQLKQKYNEEEYKKKREEKEELEKELARLEAQKKELEKRRDTIKSTLEKLKAEKENRERVKKEIKDLEKAKDFTEELIEKVKKYKALAREAALSKIGELASEIFAEFTEGKYSEVVVRAEENKVRLFVVWEGKERPLTFLSGGERIALGLAFRLAMSLYLAGEISLLILDEPTPYLDEERRRKLITIMERYLKKIPQVILVSHDEELKDAADHVIRISLENGSSKVEVVS
notes: N-terminal Gly exposed by TEV cleavage; replaces residue 502 of Rad50; also called ccC; TEV-cleaved ccC; source: E. coli BL21 Codon+, co-expressed with Ncc, purified, tag removed with TEV protease; not shown: His6 (MK-HHHHHH-ENLYFQ, with TEV cleavage site), N-terminal, cleaved
On to B1, for which the binding result is listed as “binds”.
